Columns and labels:
[1] = biological target: T1, native, full-length VZV gB purified from VZV infected MeWo cells (varicella-zoster virus (parental Oka …, UniProt Q4JR05, N-linked glycosylation (sites in S4 Table))); assay: cryo-EM structure; Fab fragments added in molar excess to native, full-length gB in TBS pH7.4 with Amphipol 8-35, overnight at +4°C; complexes purified on Superose-6 in TBS pH7.4; 200kV F20 microscope; conditions: both partners purified
T1 construct: VZV glycoprotein B (ORF31), parental Oka strain, residues up to 931; 71-residue signal peptide; native gB is cleaved by furin at 491RSRR494 into two fragments; residues 115-736 resolved in the cryo-EM structure; Held in Amphipol 8-35; also called glycoprotein B; native, full-length gB; not shown: V5, C-terminal, cleaved

[2] = biological target: T2, VZV gB wild type expressed from pCAGGS-gB in CHO-DSP1 cells (varicella-zoster virus, UniProt Q4JR05); assay: western blot; reducing, denaturing SDS-PAGE of anti-V5 immunoprecipitates from transfected CHO-DSP1 cells, blot probed with mAb 93k; conditions: one partner purified
T2 construct: VZV glycoprotein B (ORF31) expressed from pCAGGS-gB; detected by an antiserum to residues 833-846 of the cytoplasmic region; also called WT gB; gB-WT; source: CHO-DSP1, transfected (pCAGGS-gB), in lysate; also on fixed transfected cells

[3] = biological target: the molecule itself; assay: crystal structure; gB ectodomain; 0.1 M Na acetate pH 4.6, 20% PEG 400, 6% ethylene glycol, room temperature vapor diffusion
[4] = biological target: the molecule itself; assay: cryo-EM structure; native, full-length gB without antibody, in Amphipol 8-35, TBS pH7.4; 300kV Titan Krios; C3 symmetry imposed

B1: Fab fragment of the neutralizing human mAb 93k (Fab, V domains shown)
VH: QVQLVQSGAEVKKPGSSVKVSCKASGGTFSNFAISWVRQAPGQGLEWMGRIMPLFVTSTYAQKFQGRVTISADASTSTAYMELSSLRSDDTAMYYCARDITAPGAAPTPLNFYGMDVWGQGTTVTVSS
VL: DIQMTQSPSTLSASVGDRVTITCRASQTISTWLAWYQQTPRKAPKLMIYKASILENGVPSRFSGSGSGTEFTLTISSLQPEDFATYYCQQYKSYPWTFGQGTKVEI
notes: map of gB-93k deposited here as EMD-22519; I53 of the VL chain is named; also called 93k Fab
[1]
  binding result: binds

B2: human neutralizing monoclonal antibody 93k (antibody, V domains shown)
VH: B1 VH
VL: B1 VL
notes: variable part as the heavy chain of m12; as the light chain of m12; Human IgG (detected with anti-human IgG); also called mAb 93k
[2]
  binding result: binds

B3: VZV gB ectodomain used for X-ray crystallography (domain or fragment, varicella-zoster virus (Oka strain), UniProt Q4JR05 72-736, looked up)
chain: VSPSSFYESLQVEPTQSEDITRSAHLGDGDEIREAIHKSQDAETKPTFYVCPPPTGSTIVRLEPPRTCPDYHLGKNFTEGIAVVYKENIAAYKFKATVYYKDVIVSTAGAGSSGTQITNRYADRVPIPVSEITDTIDKFGKCSSKATYVRNNHKVEAFNEDKNPQDMPLIASKYNSVGSKAWHTTNDTYMVAGTPGTYRTGTSVNCIIEEVEARSIFPYDSFGLSTGDIIYMSPFFGLRDGAYREHSNYAMDRFHQFEGYRQRDLDTRALLEPAARNFLVTPHLTVGWNWKPKRTEVCSLVKWREVEDVVRDEYAHNFRFTMKTLSTTFISETNEFNLNQIHLSQCVKEEARAIINRIYTTRYNSSHVRTGDIQTYLARGGFVVVFQPLLSNSLARLYLQELVRENTNHSPQKHPTRNTGSGGSVPVELRANRTITTTSSVEFAMLQFTYDHIQEHVNEMLARISSSWCQLQNRERALWSGLFPINPSALASTILDQRVKARILGDVISVSNCPELGSDTRIILQNSMRVSGSTTRCYSRPLISIVSLNGSGTVEGQLGTDNELIMSRDLLEPCVANHKRYFLFGHHYVYYEDYRYVREIAVHDVGMISTYVDLNLTLLKDREFMPLQVYTRDELRDTGLLDYSEIQRRNQMHSLRFYDIDKVVQ
modifications: N-linked glycosylation (sites in S4 Table)
notes: VZV glycoprotein B (ORF31), Oka strain, codon-modified; residues 72-736, without the 71 amino acid signal peptide; residues 115-736 resolved in the crystal; also called truncated gB; truncated VZV gB; source: HEK293 GnTI- cells, transiently transfected (pCMV-III), purified (Ni-NTA, ion-exchange, Superdex 200)
[3]
  stoichiometry N: 3

B4: native, full-length VZV gB purified from VZV infected MeWo cells (natural protein)
chain: VSPSSFYESLQVEPTQSEDITRSAHLGDGDEIREAIHKSQDAETKPTFYVCPPPTGSTIVRLEPPRTCPDYHLGKNFTEGIAVVYKENIAAYKFKATVYYKDVIVSTAWAGSSYTQITNRYADRVPIPVSEITDTIDKFGKCSSKATYVRNNHKVEAFNEDKNPQDMPLIASKYNSVGSKAWHTTNDTYMVAGTPGTYRTGTSVNCIIEEVEARSIFPYDSFGLSTGDIIYMSPFFGLRDGAYREHSNYAMDRFHQFEGYRQRDLDTRALLEPAARNFLVTPHLTVGWNWKPKRTEVCSLVKWREVEDVVRDEYAHNFRFTMKTLSTTFISETNEFNLNQIHLSQCVKEEARAIINRIYTTRYNSSHVRTGDIQTYLARGGFVVVFQPLLSNSLARLYLQELVRENTNHSPQKHPTRNTRSRRSVPVELRANRTITTTSSVEFAMLQFTYDHIQEHVNEMLARISSSWCQLQNRERALWSGLFPINPSALASTILDQRVKARILGDVISVSNCPELGSDTRIILQNSMRVSGSTTRCYSRPLISIVSLNGSGTVEGQLGTDNELIMSRDLLEPCVANHKRYFLFGHHYVYYEDYRYVREIAVHDVGMISTYVDLNLTLLKDREFMPLQVYTRDELRDTGLLDYSEIQRRNQMHSLRFYDIDKVVQYDSGTAIMQGMAQFFQGLGTAGQAVGHVVLGATGALLSTVHGFTTFLSNPFGALAVGLLVLAGLVAAFFAYRYVLKLKTSPMKALYPLTTKGLKQLPEGMDPFAEKPNATDTPIEEIGDSQNTEPSVNSGFDPDKFREAQEMIKYMTLVSAAERQESKARKKNKTSALLTSRLTGLALRNRRGYSRVRTENVTGV
modifications: N-linked glycosylation (sites in S4 Table)
notes: VZV glycoprotein B (ORF31), parental Oka strain, residues up to 931; 71-residue signal peptide; native gB is cleaved by furin at 491RSRR494 into two fragments; residues 115-736 resolved in the cryo-EM structure; Held in Amphipol 8-35; also called glycoprotein B; native, full-length gB; not shown: V5, C-terminal, cleaved
[4]
  stoichiometry N: 3
